Experimental data: US20140087995A1 (published 2014)
Numbered stars: 1 amine (or outer) side, 2 acyl side, 3 side chain; on linkers, the order of the positions; unused ones are H or OH. Bridge positions count the residues as written; N and C are the ends. * marks the point of attachment. C20 diacid = O=C(O)CCCCCCCCCCCCCCCCCCC(=O)*; γGlu = O=C(O)[C@H](CCC(=O)[*:2])N[*:1]

T1: human calcitonin receptor (human, UniProt P30988 25-474)
T1 sequence (looked up): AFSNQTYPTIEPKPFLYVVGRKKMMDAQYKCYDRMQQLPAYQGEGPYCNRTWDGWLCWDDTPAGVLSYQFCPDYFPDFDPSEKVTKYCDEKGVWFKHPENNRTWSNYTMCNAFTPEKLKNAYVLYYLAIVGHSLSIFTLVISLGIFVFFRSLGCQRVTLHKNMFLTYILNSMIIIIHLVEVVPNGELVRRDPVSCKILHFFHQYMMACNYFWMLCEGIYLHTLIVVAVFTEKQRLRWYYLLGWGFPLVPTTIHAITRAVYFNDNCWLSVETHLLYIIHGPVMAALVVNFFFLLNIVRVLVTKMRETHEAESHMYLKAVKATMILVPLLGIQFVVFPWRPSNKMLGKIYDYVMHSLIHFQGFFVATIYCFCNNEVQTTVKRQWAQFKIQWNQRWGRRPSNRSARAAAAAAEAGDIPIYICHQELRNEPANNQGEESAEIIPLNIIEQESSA

T2: human amylin 3(a) receptor (human calcitonin receptor plus RAMP-3) (human, UniProt P30988 25-474; O60896 24-148, limits assumed)
T2 sequence (looked up) 1: T1 sequence (looked up)
T2 sequence (looked up) 2: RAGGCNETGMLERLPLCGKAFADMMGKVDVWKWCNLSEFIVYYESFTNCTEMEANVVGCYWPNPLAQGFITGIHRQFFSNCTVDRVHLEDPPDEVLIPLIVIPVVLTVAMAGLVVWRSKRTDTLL

B1: N^α1-[(4S)-4-carboxy-4-(19-carboxynonadecanoylamino)butanoyl]-[Glu14,Arg17,Pro21,Pro27,Pro29]-h-amylin (peptide)
peptide: {C20 diacid-γGlu}-KCNTATCATQRLAEFLRHSSPNFGAIPSPTNVGSNTY-NH2
modifications: disulfide 2-7
SMILES: CC[C@H](C)[C@H](NC(=O)[C@H](C)NC(=O)CNC(=O)[C@H](Cc1ccccc1)NC(=O)[C@H](CC(N)=O)NC(=O)[C@@H]1CCCN1C(=O)[C@H](CO)NC(=O)[C@H](CO)NC(=O)[C@H](Cc1c[nH]cn1)NC(=O)[C@H](CCCNC(=N)N)NC(=O)[C@H](CC(C)C)NC(=O)[C@H](Cc1ccccc1)NC(=O)[C@H](CCC(=O)O)NC(=O)[C@H](C)NC(=O)[C@H](CC(C)C)NC(=O)[C@H](CCCNC(=N)N)NC(=O)[C@H](CCC(N)=O)NC(=O)[C@@H](NC(=O)[C@H](C)NC(=O)[C@@H]1CSSC[C@H](NC(=O)[C@H](CCCCN)NC(=O)CC[C@H](NC(=O)CCCCCCCCCCCCCCCCCCC(=O)O)C(=O)O)C(=O)N[C@@H](CC(N)=O)C(=O)N[C@@H]([C@@H](C)O)C(=O)N[C@@H](C)C(=O)N[C@@H]([C@@H](C)O)C(=O)N1)[C@@H](C)O)C(=O)N1CCC[C@H]1C(=O)N[C@@H](CO)C(=O)N1CCC[C@H]1C(=O)N[C@H](C(=O)N[C@@H](CC(N)=O)C(=O)N[C@H](C(=O)NCC(=O)N[C@@H](CO)C(=O)N[C@@H](CC(N)=O)C(=O)N[C@H](C(=O)N[C@@H](Cc1ccc(O)cc1)C(N)=O)[C@@H](C)O)C(C)C)[C@@H](C)O
notes: also called compound 37
B2: N^α1-[(4S)-4-carboxy-4-(19-carboxynonadecanoylamino)butanoyl]-[Glu14,Arg17,Pro21,Pro27,Pro37]-h-amylin (peptide)
peptide: {C20 diacid-γGlu}-KCNTATCATQRLAEFLRHSSPNFGAIPSSTNVGSNTP-NH2
modifications: disulfide 2-7
SMILES: CC[C@H](C)[C@H](NC(=O)[C@H](C)NC(=O)CNC(=O)[C@H](Cc1ccccc1)NC(=O)[C@H](CC(N)=O)NC(=O)[C@@H]1CCCN1C(=O)[C@H](CO)NC(=O)[C@H](CO)NC(=O)[C@H](Cc1c[nH]cn1)NC(=O)[C@H](CCCNC(=N)N)NC(=O)[C@H](CC(C)C)NC(=O)[C@H](Cc1ccccc1)NC(=O)[C@H](CCC(=O)O)NC(=O)[C@H](C)NC(=O)[C@H](CC(C)C)NC(=O)[C@H](CCCNC(=N)N)NC(=O)[C@H](CCC(N)=O)NC(=O)[C@@H](NC(=O)[C@H](C)NC(=O)[C@@H]1CSSC[C@H](NC(=O)[C@H](CCCCN)NC(=O)CC[C@H](NC(=O)CCCCCCCCCCCCCCCCCCC(=O)O)C(=O)O)C(=O)N[C@@H](CC(N)=O)C(=O)N[C@@H]([C@@H](C)O)C(=O)N[C@@H](C)C(=O)N[C@@H]([C@@H](C)O)C(=O)N1)[C@@H](C)O)C(=O)N1CCC[C@H]1C(=O)N[C@@H](CO)C(=O)N[C@@H](CO)C(=O)N[C@H](C(=O)N[C@@H](CC(N)=O)C(=O)N[C@H](C(=O)NCC(=O)N[C@@H](CO)C(=O)N[C@@H](CC(N)=O)C(=O)N[C@H](C(=O)N1CCC[C@H]1C(N)=O)[C@@H](C)O)C(C)C)[C@@H](C)O
notes: also called compound 8
B3: N^α1-[(4S)-4-carboxy-4-[[(4S)-4-carboxy-4-(19-carboxynonadecanoylamino)butanoyl]amino]butanoyl]-[Glu14,Arg17,Pro21,Pro27,Pro37]-h-amylin (peptide)
peptide: {C20 diacid-γGlu-γGlu}-KCNTATCATQRLAEFLRHSSPNFGAIPSSTNVGSNTP-NH2
modifications: disulfide 2-7
SMILES: CC[C@H](C)[C@H](NC(=O)[C@H](C)NC(=O)CNC(=O)[C@H](Cc1ccccc1)NC(=O)[C@H](CC(N)=O)NC(=O)[C@@H]1CCCN1C(=O)[C@H](CO)NC(=O)[C@H](CO)NC(=O)[C@H](Cc1c[nH]cn1)NC(=O)[C@H](CCCNC(=N)N)NC(=O)[C@H](CC(C)C)NC(=O)[C@H](Cc1ccccc1)NC(=O)[C@H](CCC(=O)O)NC(=O)[C@H](C)NC(=O)[C@H](CC(C)C)NC(=O)[C@H](CCCNC(=N)N)NC(=O)[C@H](CCC(N)=O)NC(=O)[C@@H](NC(=O)[C@H](C)NC(=O)[C@@H]1CSSC[C@H](NC(=O)[C@H](CCCCN)NC(=O)CC[C@H](NC(=O)CC[C@H](NC(=O)CCCCCCCCCCCCCCCCCCC(=O)O)C(=O)O)C(=O)O)C(=O)N[C@@H](CC(N)=O)C(=O)N[C@@H]([C@@H](C)O)C(=O)N[C@@H](C)C(=O)N[C@@H]([C@@H](C)O)C(=O)N1)[C@@H](C)O)C(=O)N1CCC[C@H]1C(=O)N[C@@H](CO)C(=O)N[C@@H](CO)C(=O)N[C@H](C(=O)N[C@@H](CC(N)=O)C(=O)N[C@H](C(=O)NCC(=O)N[C@@H](CO)C(=O)N[C@@H](CC(N)=O)C(=O)N[C@H](C(=O)N1CCC[C@H]1C(N)=O)[C@@H](C)O)C(C)C)[C@@H](C)O
notes: also called compound 14
B4: N^α1-[(4S)-4-carboxy-4-(19-carboxynonadecanoylamino)butanoyl]-[Glu14,Arg17,Pro21,Pro27,Pro31]-h-amylin (peptide)
peptide: {C20 diacid-γGlu}-KCNTATCATQRLAEFLRHSSPNFGAIPSSTPVGSNTY-NH2
modifications: disulfide 2-7
SMILES: CC[C@H](C)[C@H](NC(=O)[C@H](C)NC(=O)CNC(=O)[C@H](Cc1ccccc1)NC(=O)[C@H](CC(N)=O)NC(=O)[C@@H]1CCCN1C(=O)[C@H](CO)NC(=O)[C@H](CO)NC(=O)[C@H](Cc1c[nH]cn1)NC(=O)[C@H](CCCNC(=N)N)NC(=O)[C@H](CC(C)C)NC(=O)[C@H](Cc1ccccc1)NC(=O)[C@H](CCC(=O)O)NC(=O)[C@H](C)NC(=O)[C@H](CC(C)C)NC(=O)[C@H](CCCNC(=N)N)NC(=O)[C@H](CCC(N)=O)NC(=O)[C@@H](NC(=O)[C@H](C)NC(=O)[C@@H]1CSSC[C@H](NC(=O)[C@H](CCCCN)NC(=O)CC[C@H](NC(=O)CCCCCCCCCCCCCCCCCCC(=O)O)C(=O)O)C(=O)N[C@@H](CC(N)=O)C(=O)N[C@@H]([C@@H](C)O)C(=O)N[C@@H](C)C(=O)N[C@@H]([C@@H](C)O)C(=O)N1)[C@@H](C)O)C(=O)N1CCC[C@H]1C(=O)N[C@@H](CO)C(=O)N[C@@H](CO)C(=O)N[C@H](C(=O)N1CCC[C@H]1C(=O)N[C@H](C(=O)NCC(=O)N[C@@H](CO)C(=O)N[C@@H](CC(N)=O)C(=O)N[C@H](C(=O)N[C@@H](Cc1ccc(O)cc1)C(N)=O)[C@@H](C)O)C(C)C)[C@@H](C)O
notes: also called compound 31
B5: N^α1-[(4S)-4-carboxy-4-(19-carboxynonadecanoylamino)butanoyl]-[Glu14,Arg17,Pro21,Pro27,Pro34]-h-amylin (peptide)
peptide: {C20 diacid-γGlu}-KCNTATCATQRLAEFLRHSSPNFGAIPSSTNVGPNTY-NH2
modifications: disulfide 2-7
SMILES: CC[C@H](C)[C@H](NC(=O)[C@H](C)NC(=O)CNC(=O)[C@H](Cc1ccccc1)NC(=O)[C@H](CC(N)=O)NC(=O)[C@@H]1CCCN1C(=O)[C@H](CO)NC(=O)[C@H](CO)NC(=O)[C@H](Cc1c[nH]cn1)NC(=O)[C@H](CCCNC(=N)N)NC(=O)[C@H](CC(C)C)NC(=O)[C@H](Cc1ccccc1)NC(=O)[C@H](CCC(=O)O)NC(=O)[C@H](C)NC(=O)[C@H](CC(C)C)NC(=O)[C@H](CCCNC(=N)N)NC(=O)[C@H](CCC(N)=O)NC(=O)[C@@H](NC(=O)[C@H](C)NC(=O)[C@@H]1CSSC[C@H](NC(=O)[C@H](CCCCN)NC(=O)CC[C@H](NC(=O)CCCCCCCCCCCCCCCCCCC(=O)O)C(=O)O)C(=O)N[C@@H](CC(N)=O)C(=O)N[C@@H]([C@@H](C)O)C(=O)N[C@@H](C)C(=O)N[C@@H]([C@@H](C)O)C(=O)N1)[C@@H](C)O)C(=O)N1CCC[C@H]1C(=O)N[C@@H](CO)C(=O)N[C@@H](CO)C(=O)N[C@H](C(=O)N[C@@H](CC(N)=O)C(=O)N[C@H](C(=O)NCC(=O)N1CCC[C@H]1C(=O)N[C@@H](CC(N)=O)C(=O)N[C@H](C(=O)N[C@@H](Cc1ccc(O)cc1)C(N)=O)[C@@H](C)O)C(C)C)[C@@H](C)O
notes: also called compound 32

molecular target: T1, human calcitonin receptor; assay: cell-based or functional assay

Row | Binder | hCTR funct. EC50
1 | B1 | 372 pM
2 | {C20 diacid-γGlu}-KCNTATCATQRLAEFLRHSSPNFGAILPSTNVGSETY-NH2 (disulfide 2-7, also called compound 33) | 528 pM
3 | B2 | 87 pM
4 | B3 | 238 pM
5 | B4 | 717 pM
6 | B5 | 327 pM

molecular target: T2, human amylin 3(a) receptor (human …); assay: cell-based or functional assay

Row | Binder | Ratio hCT/hAmylin funct. | hAmylin-R funct. EC50
7 | B1 | 4 | 92 pM
8 | {C20 diacid-γGlu}-KCNTATCATQRLAEFLRHSSPNFGAILPSTNVGSETY-NH2 (disulfide 2-7, also called compound 33) | 2.2 | 243 pM
9 | B2 | 1.1 | 82 pM
10 | B3 | 1.6 | 146 pM
11 | B4 | 6.4 | 112 pM
12 | B5 | 6.6 | 50 pM

molecular target: T2, human amylin 3(a) receptor (human …); assay: SPA competition binding, displacement of 125I-rat amylin from membranes of Amylin 3(a)/CRE-luc BHK cells (Assay V)
Protocol: The binding assay was performed using scintillation proximity assay (SPA) beads (RPNQ0001) from PerkinElmer and cell membranes from the Amylin 3(a)/CRE-luc cells (as described in Assay (II)) were used. Membranes were prepared in the following way; the cells were rinsed with PBS and incubated with Versene for approximately 5 min before harvesting. The cells were flushed with PBS and the cell-suspension was centrifuged for 5 min at 1000 rpm. Cells were homogenized (ultrathurrax) in a buffer containing 20 mM Na-HEPES and 10 mM EDTA (pH 7.4) and centrifuged at 20.000 rpm for 15 min. The resulting pellet was resuspended, homogenized and centrifuged (20.000 rpm, 15 min) in a buffer containing 20 mM Na-HEPES and 0.1 mM EDTA (pH 7.4, buffer 2). The resulting pellet was resuspended in buffer 2 and protein concentration was measured (BCA protein Assay, Pierce). The homogenate was kept cold during the whole procedure. The membranes were kept at −80° C. until use. The assay was performed in a 384 well Optiplate (PerkinElmer) in a total volume of 40 ul. Membranes were mixed with SPA beads. Final concentration of membranes 35 ng/μL final and SPA beads was 0.05 mg/well. Test-compounds were dissolved in DMSO and further diluted in assay buffer (50 mM Hepes, pH 7.4, 1 mM CaCl2, 5 mM MgCl₂, 0.1% OA and 0.02% Tween20). […] The final mixture was incubated with shaking at 400 rpm for 120 min at 25° C. prior to centrifugation (1500 rpm, 10 min). Samples were analyzed on TopCounter™ (Packard). The IC₅₀ was calculated using (one site binding competition analysis) GraphPad Prism5 as a measure of receptor affinity.

Row | Binder | IC50
13 | B1 | 0.97 nM
14 | {C20 diacid-γGlu}-KCNTATCATQRLAEFLRHSSPNFGAILPSTNVGSETY-NH2 (disulfide 2-7, also called compound 33) | 0.915 nM
15 | B2 | 0.072 nM
16 | B3 | 0.196 nM
17 | B4 | 0.204 nM
18 | B5 | 0.1 nM
